Measured values as given in patent US20190002588A1 (NATIONAL UNIVERSITY CORPORATION CHIBA UNIVERSITY, published 2019).
Where a chain is given by its changes, count along the chain named. Numbers in names are those of the source.

T1: human Myl9-His (human, UniProt P24844 2-172, limits assumed)
T1 construct: Made in E. coli; the GST tag was cleaved with PreScission Protease
T1 sequence: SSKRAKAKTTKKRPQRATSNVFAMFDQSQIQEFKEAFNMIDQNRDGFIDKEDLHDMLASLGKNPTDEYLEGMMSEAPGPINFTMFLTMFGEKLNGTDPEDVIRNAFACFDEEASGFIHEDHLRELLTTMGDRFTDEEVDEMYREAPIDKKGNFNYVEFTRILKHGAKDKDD

T2: human Myl12a-His (human, UniProt P19105 1-171)
T2 construct: Made in E. coli; GST tag cleaved with PreScission Protease; DTT-treated monomer
T2 sequence: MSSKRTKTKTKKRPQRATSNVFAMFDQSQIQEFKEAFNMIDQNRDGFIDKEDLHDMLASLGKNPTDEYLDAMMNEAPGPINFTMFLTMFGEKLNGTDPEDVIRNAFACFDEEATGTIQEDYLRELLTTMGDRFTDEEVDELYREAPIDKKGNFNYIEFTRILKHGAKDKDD

T3: human Myl12b-His (human, UniProt O14950 1-172)
T3 construct: Made in E. coli; GST tag cleaved with PreScission Protease; DTT-treated monomer
T3 sequence: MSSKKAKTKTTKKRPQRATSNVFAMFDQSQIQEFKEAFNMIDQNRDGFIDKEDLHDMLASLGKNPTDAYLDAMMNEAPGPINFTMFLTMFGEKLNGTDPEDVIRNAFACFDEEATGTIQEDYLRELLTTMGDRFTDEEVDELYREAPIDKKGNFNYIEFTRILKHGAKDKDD

B1: Humanized antibody No. 113 (antibody, human IgG2, kappa, V domains shown)
VH: QVQLVQSGAEVKKPGSSVKVSCKASGGTFSDYEMHWVRQAPGQGLEWMGAIDPETGGTAYNQKFKGRVTITADKSTSTAYMELRSLRSEDTAVYYCADYDYDGFAYWGQGTLVTVSS
VL: DIVMTQSPLSLSITPGEQASISCRSSQSLVHSNGNTYLHWYLQKPGQSPQLLISKVSNRFSGVPDRFSGSGSGTDFTLKISRVEAEDVGVYFCSQNTHVPPLTFGGGTKVEIKR
notes: human IgG2 (V234A, G237A, C-terminal Lys deleted) / kappa; Expi293F, Protein A purified; also called HK1-6/L1-5
B2: Humanized antibody No. 116 (antibody, human IgG2, kappa, V domains shown)
VH: B1 VH with S16A, G27Y, S30T, I70M, K74T, R84S
VL: B1 VL
notes: human IgG2 (V234A, G237A, C-terminal Lys deleted) / kappa; Expi293F, Protein A purified; also called HK2-5/L1-5
B3: Humanized antibody No. 114 (antibody, human IgG2, kappa, V domains shown)
VH: B1 VH with V68A
VL: B1 VL
notes: human IgG2 (V234A, G237A, C-terminal Lys deleted) / kappa; Expi293F, Protein A purified; also called HK1-4/L1-5
B4: Humanized antibody No. 110 (antibody, human IgG2, kappa, V domains shown)
VH: B1 VH with G27Y, S30T, N61A, K65Q
VL: B1 VL
notes: human IgG2 (V234A, G237A, C-terminal Lys deleted) / kappa; Expi293F, Protein A purified; also called HA1-6/L1-5
B5: Humanized antibody No. 115 (antibody, human IgG2, kappa, V domains shown)
VH: B1 VH with G27Y, M48I, V68A, A97T
VL: B1 VL
notes: human IgG2 (V234A, G237A, C-terminal Lys deleted) / kappa; Expi293F, Protein A purified; also called HK1-A/L1-5
B6: Humanized antibody No. 112 (antibody, human IgG2, kappa, V domains shown)
VH: B1 VH with R84S
VL: B1 VL
notes: human IgG2 (V234A, G237A, C-terminal Lys deleted) / kappa; Expi293F, Protein A purified; also called HK1-5/L1-5
B7: Humanized antibody No. 111 (antibody, human IgG2, kappa, V domains shown)
VH: B1 VH with G27Y, S30T, N61A, K65Q, V68A
VL: B1 VL
notes: human IgG2 (V234A, G237A, C-terminal Lys deleted) / kappa; Expi293F, Protein A purified; also called HA1-4/L1-5

target: T1, human Myl9-His; test: ELISA, human Myl9-His coated, anti-human IgG-HRP
Protocol: The binding ability against human Myl9 was evaluated following the steps below by ELISA. Human Myl3-His and human Myl9-His were coated onto the wells of a 96-well plate (Nunc). After an overnight incubation at 4° C., the wells were blocked at room temperature for one hour with 1× Block Ace (DS Pharma Biomedical Co., Ltd.). After washing three times with 0.02% Tween 20/PBS, seven serial dilutions by six folds of the chimeric and humanized antibodies were made from a concentration of 10 μg/mL and added to the wells. After incubation at room temperature for one hour and washing three times, horseradish peroxidase-labeled anti-human IgG antibody (Jackson ImmunoResearch Laboratories) was added, and this was incubated at room temperature for one hour. After washing 5 times, TMBZ (3,3′,5,5′-tetramethylbenzidine) solution was added to the wells, and this was incubated for 5-20 minutes at room temperature. An equal amount of reaction quenching solution (2N H₂SO₄) was added to the wells, and absorbance at 450 nm was read with a microplate reader (PerkinElmer).

| binding result | Binder |
| --- | --- |
| binds | B1 |
| binds | B2 |
| binds | B3 |
| binds | B4 |
| binds | B5 |
| binds | B6 |
| binds | B7 |

target: T2, human Myl12a-His; test: ELISA, human Myl12a-His coated, anti-human IgG-HRP
Protocol: (§1) The binding ability of chimeric and humanized antibodies prepared from Antibody A against human Myl12a and Myl12b was evaluated following the steps below by ELISA. Human Myl3-His, human Myl9-His, human Myl12a-His and human Myl12b-His were coated onto the wells of a 96-well plate (Nunc), respectively. After an overnight incubation at 4° C., the wells were blocked at room temperature for one hour with 1× Block Ace (DS Pharma Biomedical Co., Ltd.). After washing three times with 0.02% Tween 20/PBS, the chimeric and humanized antibodies were diluted at the concentration of 0.01, 0.1 and 1 μg/mL, respectively and added to the wells. After incubation at room temperature for one hour and washing three times, horseradish peroxidase-labeled anti-human IgG antibody (Jackson ImmunoResearch Laboratories) was added, and this was incubated at room temperature for one hour. After washing 5 times, TMBZ (3,3′,5,5′-tetramethylbenzidine) solution was added to the wells, and this was incubated for 5-20 minutes at room temperature. An equal amount of reaction quenching solution (2N H₂SO₄) was added to the wells, and absorbance at 450 nm was read with a microplate reader (Thermo Scientific).

| binding result | Binder |
| --- | --- |
| binds | B1 |
| binds | B2 |
| binds | B3 |
| binds | B4 |
| binds | B5 |
| binds | B6 |
| binds | B7 |

target: T3, human Myl12b-His; test: ELISA, human Myl12b-His coated, anti-human IgG-HRP
Protocol: as §1

| binding result | Binder |
| --- | --- |
| binds | B1 |
| binds | B2 |
| binds | B3 |
| binds | B4 |
| binds | B5 |
| binds | B6 |
| binds | B7 |

target: T4, human Myl3-His (human, UniProt P08590 2-195, limits assumed); test: ELISA at 0.01, 0.1 and 1 µg/mL, human Myl3-His coated, anti-human IgG-HRP
T4 construct: Made in E. coli; the GST tag was cleaved with PreScission Protease
Protocol: as §1

T4 sequence (P08590 2-195 limits assumed): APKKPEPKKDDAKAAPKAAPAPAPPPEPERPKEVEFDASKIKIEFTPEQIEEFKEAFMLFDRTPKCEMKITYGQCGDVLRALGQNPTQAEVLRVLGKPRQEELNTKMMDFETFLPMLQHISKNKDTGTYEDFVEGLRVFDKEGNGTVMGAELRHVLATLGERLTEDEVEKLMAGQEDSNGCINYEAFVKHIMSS

| binding result | Binder |
| --- | --- |
| no binding (tested: 1 µg/mL) | B1 |
| no binding (tested: 1 µg/mL) | B2 |
| no binding (tested: 1 µg/mL) | B3 |
| no binding (tested: 1 µg/mL) | B4 |
| no binding (tested: 1 µg/mL) | B5 |
| no binding (tested: 1 µg/mL) | B6 |
| no binding (tested: 1 µg/mL) | B7 |
